Reference: article PMC12350162 (Nature, 2025)

Molecular target: the molecule itself
Assay: cryo-EM structure; 1-MDa fraction of the Superose 6 Increase step, 1 mg/ml, frozen anaerobically at once after purification; Titan Krios G3i, K3; focused maps of Hdr(ABC)2 and of the Elp arm in two conformational states

B1: heterodisulfide reductase HdrABC (complex)
chain 1: MAEEKKETMEEPKIGVYVCHCGVNIGGVVDVEAVRDYAAKLPNVVIAKDYKYYCSDPGQLEIQKDIKELGINRVVVAACSPRLHEPTFRRCVEEAGLNQFLFEFANIREHDSWVHMDNPEGATEKAKDLVRMAVAKARLLEPLEASKVSVDDKALVIGGGVAGIQAALDLADMGFKTYMVEKRPSISGRMGQLDKTFPTLDCSMCILAPKMVDVGKHDNIELITYAEVKEVDGYIGNFKVKIEKKPRYIDEELCTGCGSCVEVCPIEMPNYFDEGIGMTKAVYIPFPQAVPLCATIDKDYCIECMLCDEVCERGAVKHDQEPEEIEIEVGTIIVATGYDAYDPTEKLEYGYGRHTNVITGLELERMINASGPTDGKVLKPSDGEKPKRVAFIHCVGSRDEQIGKPYCSRVCCMYIMKNAQLIKDKMPDTEVTLYYMDIRAFGKGFEEFYKRSQEKYGIKFIRGRPAEVIENPDLTLTVRSEDTLLGKVTEYDYDMVVLGVGLVPPEGAETLRQTIGLSKSADGFLMEAHPKLRPVDTLTDGVYLAGVAQGPKDIPDAVAQASGAAARAAIPMVKGEVEIEPIIAVTDSDVCGGCEVCIELCPFGAISIEEGHANVNVALCKGCGTCVAACPSGAMDQQHFKTEQIMAQIEAALNEPASK
chain 2: not shown
chain 3: MTLLQREENIIRKGNIDKEFSEKIKAAGGDSLEYCFQCGTCTGSCPSGRRTPYRVRQIIRKANVGLKDEIISDPTLWMCTTCYSCQERCPRKVKIVDVVKLARNEAAKAGFMAPAHKAVGSFVIKTGHGVPINDATMELRKAVGLGELPPTTHQFPEALEEVQKIIKATGFDQLIGYNWETGELE
notes: also called Hdr(ABC)2; (HdrABC)2
stoichiometry N: 2
